Earlier results in patent publication US20250304973.

Biological target: alpha-thrombin (native) (Homo sapiens) (UniProt P00734+P00734)
Details: CITED; linker not given

Substance: HD1-22 bivalent (HD1 linked to HD22)
- Kd: 650 pM
